This note sets out measurements from paper PMC8652540.

The target in this data set is SARS-CoV-2 nucleocapsid protein (NCAP, N protein) (SARS-CoV-2, UniProt P0DTC9 1-419). In words: EMSA. The following applies: protein: recombinant; tags: N-terminal GFP and His (N-GFP-NCAP-His, pET-28a(+)-TEV) as purified; EMSA text says only recombinant NCAP; chain copies: 2; single strand (legend says 24 bp).

Take UGCUUACGGUUUCGUCCGUGUUGC (ssRNA) [5'UTR leader RNA probe]: the binding result was “binds”.
